Measurements published in the supplement of paper PMC10065799, “High-throughput profiling of sequence recognition by tyrosine kinases and SH2 domains using bacterial peptide display” (eLife, 2023).

Experiments:
AncSZ = assay: phosphorylation enrichment, bacterial display (enrichment ratio); higher = better substrate or ligand; peptides without Tyr show the background
EPHB1 = EPHB1 (UniProt P54762); assay: as above
EPHB2 = EPHB2 (UniProt P29323); assay: as above
FGFR1 = FGFR1 (UniProt P11362); assay: as above
FGFR3 = FGFR3 (UniProt P22607); assay: as above
Fer (mouse) = assay: as above
Fes = Fes (UniProt P07332); assay: as above
Fyn = Fyn (UniProt P06241); assay: as above
Hck = Hck (UniProt P08631); assay: as above
Jak2 = Jak2 (UniProt O60674); assay: as above
MERTK = MERTK (UniProt Q12866); assay: as above
c-Abl (mouse) = assay: as above
c-Src = assay: as above
Grb2 SH2 = Grb2 SH2 (UniProt P62993); assay: SH2 binding enrichment of the phosphorylated peptide, bacterial display (enrichment ratio); higher = better substrate or ligand; peptides without Tyr show the background
SHP2-C SH2 = assay: as above
c-Src SH2 = assay: as above
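Throughout, for SH2 binding enrichment of the phosphorylated peptide, bacterial display: peptide library displayed on the E. coli surface as eCPX fusions, selected cells deep-sequenced, score is each peptide's frequency after selection divided by its frequency in the input.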
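Throughout, for phosphorylation enrichment, bacterial display: 11-residue human phosphosite peptides and single-mutation variants displayed on the E. coli surface, counted by deep sequencing, each peptide's frequency after selection divided by its frequency in the unselected input library; frequency after pTyr selection over input frequency; kinase dosed for 20-30% of maximal phosphorylation in three min.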

Sequence of FGFR3 (P22607 whole entry, looked up): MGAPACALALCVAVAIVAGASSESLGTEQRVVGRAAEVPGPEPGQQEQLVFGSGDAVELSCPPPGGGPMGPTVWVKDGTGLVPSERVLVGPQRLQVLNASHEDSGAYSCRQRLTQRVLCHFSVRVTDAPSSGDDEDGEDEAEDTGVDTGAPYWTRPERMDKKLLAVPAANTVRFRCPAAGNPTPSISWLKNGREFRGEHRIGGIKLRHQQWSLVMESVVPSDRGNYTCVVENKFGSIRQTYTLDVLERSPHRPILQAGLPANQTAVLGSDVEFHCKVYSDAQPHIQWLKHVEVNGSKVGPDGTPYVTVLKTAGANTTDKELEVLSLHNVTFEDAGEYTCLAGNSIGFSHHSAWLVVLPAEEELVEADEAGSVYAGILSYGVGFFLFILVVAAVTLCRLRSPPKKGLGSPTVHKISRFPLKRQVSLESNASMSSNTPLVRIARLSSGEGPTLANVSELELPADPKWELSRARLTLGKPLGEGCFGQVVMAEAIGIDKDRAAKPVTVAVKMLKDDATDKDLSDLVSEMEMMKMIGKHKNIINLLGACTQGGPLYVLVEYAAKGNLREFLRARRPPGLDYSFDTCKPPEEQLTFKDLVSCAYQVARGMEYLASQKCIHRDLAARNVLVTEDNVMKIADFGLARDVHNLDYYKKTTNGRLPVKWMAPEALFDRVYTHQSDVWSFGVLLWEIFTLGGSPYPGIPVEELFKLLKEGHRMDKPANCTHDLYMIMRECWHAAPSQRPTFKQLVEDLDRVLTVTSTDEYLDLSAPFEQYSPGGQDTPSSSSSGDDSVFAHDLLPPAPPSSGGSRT
Sequence of FGFR1 (P11362 whole entry, looked up): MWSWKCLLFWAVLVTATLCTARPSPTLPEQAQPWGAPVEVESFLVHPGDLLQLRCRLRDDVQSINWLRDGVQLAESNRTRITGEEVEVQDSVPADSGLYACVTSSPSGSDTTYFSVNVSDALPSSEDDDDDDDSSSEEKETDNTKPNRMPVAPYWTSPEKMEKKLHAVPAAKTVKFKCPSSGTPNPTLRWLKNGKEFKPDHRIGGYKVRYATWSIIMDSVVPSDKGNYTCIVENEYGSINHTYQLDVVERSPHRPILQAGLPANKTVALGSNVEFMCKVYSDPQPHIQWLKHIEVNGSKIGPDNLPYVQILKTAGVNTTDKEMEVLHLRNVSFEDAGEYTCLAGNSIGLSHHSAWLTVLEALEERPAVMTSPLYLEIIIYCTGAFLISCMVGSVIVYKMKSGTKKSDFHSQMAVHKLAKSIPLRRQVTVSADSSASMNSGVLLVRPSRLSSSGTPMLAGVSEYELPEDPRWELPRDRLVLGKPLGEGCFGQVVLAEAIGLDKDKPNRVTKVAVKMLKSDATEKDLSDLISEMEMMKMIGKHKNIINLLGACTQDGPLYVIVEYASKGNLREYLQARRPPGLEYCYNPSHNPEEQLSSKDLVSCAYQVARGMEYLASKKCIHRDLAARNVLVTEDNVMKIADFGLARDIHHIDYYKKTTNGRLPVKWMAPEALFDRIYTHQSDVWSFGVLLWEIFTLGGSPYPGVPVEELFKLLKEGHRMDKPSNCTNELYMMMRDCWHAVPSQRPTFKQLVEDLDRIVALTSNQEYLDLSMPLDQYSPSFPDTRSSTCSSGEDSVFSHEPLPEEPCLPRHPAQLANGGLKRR
Sequence of Fes (P07332 whole entry, looked up): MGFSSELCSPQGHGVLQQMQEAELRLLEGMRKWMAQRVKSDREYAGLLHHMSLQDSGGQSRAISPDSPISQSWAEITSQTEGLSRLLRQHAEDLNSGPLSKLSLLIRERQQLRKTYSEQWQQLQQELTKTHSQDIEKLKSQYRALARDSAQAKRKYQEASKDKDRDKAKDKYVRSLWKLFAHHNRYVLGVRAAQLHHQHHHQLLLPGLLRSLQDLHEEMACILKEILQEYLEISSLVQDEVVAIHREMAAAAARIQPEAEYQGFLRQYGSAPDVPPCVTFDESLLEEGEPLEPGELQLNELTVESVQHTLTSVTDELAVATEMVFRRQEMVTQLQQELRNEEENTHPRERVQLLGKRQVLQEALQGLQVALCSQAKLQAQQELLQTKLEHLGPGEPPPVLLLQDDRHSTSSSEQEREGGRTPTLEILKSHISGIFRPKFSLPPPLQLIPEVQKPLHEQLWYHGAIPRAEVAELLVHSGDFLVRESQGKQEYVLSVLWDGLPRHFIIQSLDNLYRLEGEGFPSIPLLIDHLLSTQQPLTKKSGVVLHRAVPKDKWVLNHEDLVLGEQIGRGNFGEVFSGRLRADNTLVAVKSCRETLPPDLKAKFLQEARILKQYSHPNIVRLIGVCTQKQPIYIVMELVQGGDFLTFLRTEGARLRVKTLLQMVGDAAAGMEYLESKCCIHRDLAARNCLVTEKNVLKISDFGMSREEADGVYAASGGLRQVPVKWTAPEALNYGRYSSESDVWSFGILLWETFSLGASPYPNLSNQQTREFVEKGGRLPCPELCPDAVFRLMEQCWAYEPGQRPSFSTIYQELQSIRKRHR
Sequence of MERTK (Q12866 whole entry, looked up): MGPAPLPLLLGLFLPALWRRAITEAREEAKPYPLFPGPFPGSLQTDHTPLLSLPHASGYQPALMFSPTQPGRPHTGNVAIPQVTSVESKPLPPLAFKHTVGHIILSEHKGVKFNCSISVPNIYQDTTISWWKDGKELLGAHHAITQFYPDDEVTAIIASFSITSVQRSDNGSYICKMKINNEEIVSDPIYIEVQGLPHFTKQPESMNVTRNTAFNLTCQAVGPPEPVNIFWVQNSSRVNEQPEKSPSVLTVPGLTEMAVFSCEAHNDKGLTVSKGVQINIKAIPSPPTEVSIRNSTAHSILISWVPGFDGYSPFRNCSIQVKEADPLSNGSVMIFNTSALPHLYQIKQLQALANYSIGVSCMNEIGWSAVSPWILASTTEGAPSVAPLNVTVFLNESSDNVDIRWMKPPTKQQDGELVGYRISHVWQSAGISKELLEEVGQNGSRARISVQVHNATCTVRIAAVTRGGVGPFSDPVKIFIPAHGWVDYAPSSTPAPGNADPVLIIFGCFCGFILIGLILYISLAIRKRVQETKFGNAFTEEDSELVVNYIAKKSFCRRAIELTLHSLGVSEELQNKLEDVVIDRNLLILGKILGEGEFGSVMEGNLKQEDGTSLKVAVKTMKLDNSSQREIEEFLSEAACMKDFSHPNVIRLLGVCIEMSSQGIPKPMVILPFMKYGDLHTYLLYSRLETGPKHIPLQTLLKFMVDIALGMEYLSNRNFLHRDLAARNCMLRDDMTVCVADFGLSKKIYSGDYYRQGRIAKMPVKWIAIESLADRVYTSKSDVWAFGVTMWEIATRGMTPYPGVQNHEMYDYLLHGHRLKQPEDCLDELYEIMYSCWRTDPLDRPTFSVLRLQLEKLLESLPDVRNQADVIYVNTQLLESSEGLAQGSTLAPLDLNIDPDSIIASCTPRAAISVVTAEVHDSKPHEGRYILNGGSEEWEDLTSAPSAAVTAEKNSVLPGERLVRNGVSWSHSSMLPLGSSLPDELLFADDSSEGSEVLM
Sequence of EPHB2 (P29323 whole entry, looked up): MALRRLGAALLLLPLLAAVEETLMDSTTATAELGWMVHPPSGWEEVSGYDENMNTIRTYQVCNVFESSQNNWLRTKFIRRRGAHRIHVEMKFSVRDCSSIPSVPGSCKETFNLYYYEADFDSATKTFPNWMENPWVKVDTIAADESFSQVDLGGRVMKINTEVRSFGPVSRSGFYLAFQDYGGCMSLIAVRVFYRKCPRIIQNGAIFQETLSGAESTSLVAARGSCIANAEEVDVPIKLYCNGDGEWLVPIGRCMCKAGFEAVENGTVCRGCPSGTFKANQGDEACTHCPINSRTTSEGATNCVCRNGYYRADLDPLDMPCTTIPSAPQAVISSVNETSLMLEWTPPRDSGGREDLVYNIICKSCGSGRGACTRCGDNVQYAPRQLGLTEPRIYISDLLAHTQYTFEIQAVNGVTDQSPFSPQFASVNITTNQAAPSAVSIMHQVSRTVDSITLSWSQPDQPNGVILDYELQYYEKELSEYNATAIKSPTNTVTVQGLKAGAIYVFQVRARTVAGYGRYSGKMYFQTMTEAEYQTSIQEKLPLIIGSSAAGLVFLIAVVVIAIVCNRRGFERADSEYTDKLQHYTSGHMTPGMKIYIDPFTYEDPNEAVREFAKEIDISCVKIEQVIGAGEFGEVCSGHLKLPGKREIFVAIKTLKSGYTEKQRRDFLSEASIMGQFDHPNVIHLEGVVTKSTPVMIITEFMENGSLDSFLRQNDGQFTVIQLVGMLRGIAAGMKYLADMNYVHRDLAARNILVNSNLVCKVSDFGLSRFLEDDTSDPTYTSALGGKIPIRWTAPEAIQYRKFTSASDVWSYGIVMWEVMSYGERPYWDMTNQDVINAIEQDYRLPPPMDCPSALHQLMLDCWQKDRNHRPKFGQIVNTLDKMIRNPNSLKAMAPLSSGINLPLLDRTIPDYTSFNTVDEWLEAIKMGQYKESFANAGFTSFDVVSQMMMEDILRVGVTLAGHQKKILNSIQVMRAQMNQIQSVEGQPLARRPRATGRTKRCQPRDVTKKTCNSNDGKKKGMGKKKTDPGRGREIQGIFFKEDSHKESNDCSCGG
Sequence of Fyn (P06241 whole entry, looked up): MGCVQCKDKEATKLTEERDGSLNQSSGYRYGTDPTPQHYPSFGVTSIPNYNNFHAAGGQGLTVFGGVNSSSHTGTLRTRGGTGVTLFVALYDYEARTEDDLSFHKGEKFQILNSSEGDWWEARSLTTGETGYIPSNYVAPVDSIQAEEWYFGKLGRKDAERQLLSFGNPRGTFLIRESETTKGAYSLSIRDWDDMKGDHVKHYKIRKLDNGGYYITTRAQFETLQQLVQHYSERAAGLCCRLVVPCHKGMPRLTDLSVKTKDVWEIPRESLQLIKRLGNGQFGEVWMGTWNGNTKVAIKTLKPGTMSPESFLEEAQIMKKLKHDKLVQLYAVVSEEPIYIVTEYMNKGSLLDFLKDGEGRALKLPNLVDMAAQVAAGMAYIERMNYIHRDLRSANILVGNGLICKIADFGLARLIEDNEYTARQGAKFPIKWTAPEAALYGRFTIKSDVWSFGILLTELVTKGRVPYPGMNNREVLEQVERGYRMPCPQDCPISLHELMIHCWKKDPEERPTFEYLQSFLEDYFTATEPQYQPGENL

Row | SH2 binding enrichment (Grb2 SH2) | SH2 binding enrichment (SHP2-C SH2) | SH2 binding enrichment (c-Src SH2) | Sequence | phosphorylation enrichment (AncSZ) | phosphorylation enrichment (EPHB1) | phosphorylation enrichment (EPHB2) | phosphorylation enrichment (FGFR1) | phosphorylation enrichment (FGFR3) | phosphorylation enrichment (Fer (mouse)) | phosphorylation enrichment (Fes) | phosphorylation enrichment (Fyn) | phosphorylation enrichment (Hck) | phosphorylation enrichment (Jak2) | phosphorylation enrichment (MERTK) | phosphorylation enrichment (c-Abl (mouse)) | phosphorylation enrichment (c-Src)
1 | 0.875 | 0.88 | 0.562 | SLGSPYGQPPC [PDLIM4_Y137_R142C] | 0.659 | 0.453 | 0.491 | 0.465 | 0.588 | 0.37 | 0.835 | 0.458 | 0.576 | 0.568 | 0.39 | 0.817 | 0.373
2 | 0.83 | 0.69 | 0.518 | TINPIYEHVGF [CHN1_Y143_YF] | 1.02 | 19.7 | 23.4 | 0.739 | 0.802 | 18.2 | 9.52 | 12.6 | 11.6 | 1.18 | 11.7 | 12.5 | 9.42
3 | 1.23 | 0.794 | 0.907 | VATRWYPSPEL [CDKL5_Y177_R178P] | 0.891 | 0.577 | 0.517 | 0.437 | 0.541 | 0.289 | 0.953 | 0.439 | 0.504 | 0.763 | 0.522 | 0.696 | 0.473
4 | 0.947 | 1.11 | 0.533 | DFTEAYNPKIK [CLK1_Y305_YF] | 0.874 | 0.509 | 0.572 | 0.464 | 0.649 | 0.466 | 1.11 | 0.453 | 0.505 | 0.988 | 0.501 | 0.893 | 0.571
5 | 0.878 | 0.64 | 0.724 | GQRDLYSGLNE [CD3E_Y199_Q204E] | 1.23 | 1.12 | 1.3 | 0.555 | 0.653 | 1.94 | 0.89 | 4.4 | 9.08 | 0.716 | 2.58 | 0.566 | 5.28
6 | 1.59 | 0.851 | 1.79 | RHLREYQDLLI [DES_Y388_N393I] | 0.912 | 1.02 | 0.744 | 0.899 | 0.813 | 0.636 | 1.21 | 0.655 | 0.592 | 0.74 | 0.482 | 0.708 | 0.482
7 | 0.481 | 1.39 | 0.587 | TFACSYTPVKA [FLNB_Y708_YF] | 1.16 | 0.527 | 0.577 | 0.582 | 0.653 | 0.449 | 1.08 | 0.444 | 0.562 | 1.09 | 0.342 | 0.961 | 0.536
8 | 0.935 | 0.614 | 0.53 | RFLRGYHQDAF [HLA-A_Y137_R138H_YF] | 1.66 | 0.591 | 0.622 | 0.578 | 0.628 | 0.569 | 0.886 | 0.569 | 0.553 | 0.815 | 0.645 | 1.33 | 0.81
9 | 0.799 | 0.429 | 0.581 | RLLVVYPRTQR [HBB_Y36_W38R] | 1.05 | 0.457 | 0.81 | 0.685 | 0.525 | 0.619 | 1.28 | 0.785 | 0.704 | 1.07 | 0.658 | 0.799 | 0.484
10 | 0.872 | 0.859 | 0.764 | YLAATYPTLGQ [NF1_Y2508_V2511L] | 0.779 | 0.331 | 0.663 | 0.824 | 0.642 | 0.677 | 0.773 | 0.433 | 0.633 | 0.754 | 0.742 | 0.774 | 0.637
11 | 1.58 | 0.944 | 0.727 | QRRLVYFEGGA [RYR1_Y245_YF] | 3.89 | 1.18 | 0.995 | 1.34 | 0.902 | 1.33 | 1.39 | 1.02 | 1.13 | 0.825 | 0.531 | 0.912 | 0.376
12 | 1.01 | 1.22 | 1.28 | IYSGIYYKPES [L2HGDH_Y102_H98Y] | 3.08 | 14.1 | 15.9 | 8.71 | 7.9 | 15.8 | 9.02 | 10.2 | 9.78 | 7.32 | 11.5 | 23.7 | 7.25
13 | 0.925 | 0.625 | 0.48 | NESVDSRATFP [MET_Y1003_Y1003S] | 0.783 | 0.427 | 0.597 | 0.485 | 0.583 | 0.376 | 1.1 | 0.442 | 0.492 | 0.826 | 0.531 | 0.661 | 0.48
14 | 0.959 | 0.922 | 0.682 | SENPKCPEVGD [TMEM43_Y233_Y233C] | 0.971 | 0.492 | 0.49 | 0.487 | 0.595 | 0.467 | 1.08 | 0.441 | 0.487 | 0.807 | 0.461 | 1.24 | 0.471
15 | 0.688 | 1.12 | 0.698 | QRHYVYYYSYL [PTEN_Y176_R173H] | 1.79 | 3.51 | 2.16 | 7.4 | 6.74 | 1.29 | 1.91 | 3.5 | 3.31 | 5.22 | 8.74 | 1.84 | 5.11
16 | 0.709 | 0.653 | 24.5 | GPKFVYDEIDN [ACOX1_Y232_G231V] | 1.1 | 0.505 | 0.556 | 0.482 | 0.57 | 0.409 | 1.04 | 0.537 | 0.467 | 0.92 | 0.413 | 0.652 | 0.514
17 | 0.767 | 0.756 | 0.605 | PIQLFYTRKNT [GHR_Y86_R89K] | 4.3 | 0.65 | 0.835 | 0.718 | 0.967 | 1.27 | 1.62 | 1.04 | 1.18 | 1.86 | 0.846 | 0.916 | 1.39
18 | 1.22 | 0.869 | 1.78 | YPLAEYTEVKT [ALDH1A3_Y497_A493P] | 1.1 | 0.563 | 0.642 | 1.1 | 0.824 | 0.516 | 0.946 | 0.433 | 0.538 | 0.721 | 0.326 | 0.607 | 0.444
19 | 0.799 | 2.86 | 0.75 | ATPSQYMTFLH [DYNC2H1_Y2872_R2871Q] | 0.903 | 0.593 | 0.473 | 0.562 | 0.651 | 0.541 | 0.791 | 3.39 | 2.29 | 0.99 | 1.06 | 0.885 | 2.62
20 | 0.921 | 0.704 | 0.57 | LMFPDYLPCSV [SAG_Y129_T125M] | 2.76 | 1.07 | 0.92 | 7.55 | 4.58 | 1.19 | 1.55 | 0.743 | 0.604 | 3.69 | 0.486 | 0.985 | 0.772
21 | 0.916 | 0.485 | 0.757 | TLQSMYGCDMG [HLA-B_Y123_V127M] | 0.939 | 0.709 | 0.823 | 0.8 | 0.955 | 0.599 | 1.43 | 0.597 | 0.609 | 1.2 | 0.63 | 1.15 | 0.689
22 | 0.958 | 0.895 | 1.23 | RPPELYALMSD [ZAP70_Y569_C564R] | 2.05 | 14.6 | 3.94 | 1.44 | 1.36 | 1.17 | 2.19 | 1.28 | 2.17 | 2.28 | 15.2 | 1.81 | 1.84
23 | 1.27 | 0.73 | 0.546 | NNIDYYKNTTN [FGFR2_Y657_K659N] | 0.756 | 0.359 | 0.473 | 0.552 | 0.605 | 0.648 | 0.745 | 0.417 | 0.512 | 0.596 | 0.32 | 0.446 | 0.387
24 | 0.724 | 1.54 | 3.76 | QDRTYYESVRT [SPEN_Y633] | 0.996 | 0.98 | 0.758 | 1.9 | 1.37 | 4.79 | 0.874 | 2.28 | 4.01 | 0.82 | 1.21 | 0.61 | 2.66
25 | 1.11 | 0.797 | 0.882 | HDRNTYEKFLG [TF_Y666_YF] | 1.17 | 0.525 | 0.951 | 0.484 | 0.751 | 0.378 | 1.33 | 2.42 | 1.44 | 1.29 | 0.936 | 0.99 | 2.82
26 | 0.95 | 2.16 | 1.32 | HDRGNYVRLNM [RECQL4_Y353] | 0.944 | 2.3 | 1.35 | 0.711 | 0.943 | 0.671 | 1.3 | 0.993 | 0.765 | 1.09 | 0.837 | 0.929 | 0.592
27 | 1.16 | 0.747 | 0.552 | REEKNDKLKET [BCLAF1_Y459_Y459D] | 1.32 | 0.773 | 0.606 | 0.868 | 0.908 | 0.441 | 1.11 | 0.833 | 0.788 | 0.685 | 0.657 | 0.596 | 0.356
28 | 0.922 | 0.834 | 0.666 | QQIYTYDSGIH [JUP_Y22_T19I] | 1.02 | 3.57 | 1.98 | 1.86 | 1.84 | 4.16 | 0.923 | 10.3 | 4.94 | 0.788 | 11.1 | 0.91 | 6.68
29 | 0.922 | 0.821 | 0.502 | TESNNYIFTTL [FAM83B_Y637_K640T_YF] | 1.12 | 0.687 | 0.641 | 1.02 | 0.912 | 0.722 | 1.27 | 0.539 | 0.571 | 1.11 | 0.612 | 0.982 | 0.537
